These results are taken from the nanobody polyreactivity screen of Harvey et al. (2022).

This series in a line: yeast display, Sf9 membrane polyspecificity reagent, FACS + sequencing; frameworks hold sequencing errors. The gist of the method: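 Galactose induction of a Saccharomyces cerevisiae BJ5465 synthetic nanobody display library ran 36–48 hours. The cells were then stained for 1 hour at 4 °C with 10% biotinylated, detergent-solubilized Sf9 membrane reagent, pulled down on streptavidin microbeads and FACS-sorted into low and high (top ~1%) gates on expression and reagent-binding fluorescence. Labels for polyreactivity follow the gate of origin.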
For “EEELVESGGGLVQAGGSLRLSCAASGSTFLVYAMGWYRQAPGKERELVAVITYSTVRTYYADSVKGRFTISRDNAKNTVYLQMNSLKPEDTAVYYCNADIEFAVLGQGMDYWGQGTQVTVSS”, the “polyreactivity (PSR sort gate)” value was “low polyreactivity”.

Regarding “EVQLVESGAGLLQAGGSLRISCAASGITLAYYAMGGYRQAPGTERELVAVINIGVSTDYADSVKGRFTISRDNAKNTVYVQMTSLKPEDTAVYYSAAGWGRRWPQYNYWGQGTQVTVSS”, the “polyreactivity (PSR sort gate)” value is “high polyreactivity”.

As for “EVQLVESGGGLVQAGGSLRLSCAASGRTFIWNAMGWYRQAPGKERELVAAITRNGDSTYYADSVKGRFTISRDNAKNTVYLQMNSLKPEDTAVYYCAAYSRVFVYRTVGNYGWMNYWGQGTQVTVSS”, the “polyreactivity (PSR sort gate)” value is “high polyreactivity”.

On to “EVQLVETGGGLVQAGGSLRLSCAPSGFNFGVYAMGCYRQEPGKERELFAAISTTVGSTYYADSVKWRFTISRDNEKNTVYLQMTSLKPEDTAVYYCATGWSNCGQGTQVTVSS”, for which the “polyreactivity (PSR sort gate)” value is recorded as “low polyreactivity”.

In the case of “HAQLQDSGGGLVQAGGSLRLSCAASGNISSEYYMGWGRQAPGSGREFVAAIDYGGTTNYADNVKGRFTISRDNAKNTVYLQMNSLRPEDTAVYYCAASCDTIGLFAYWGQGTQVTVIS”, the “polyreactivity (PSR sort gate)” value is reported as “high polyreactivity”.

“HAQQQESGGGLVQAGGSLRRSCAASGSIFRFSGRGWYRLAPGKERELVASIGFGSITYYADRVKGRFTISRDNANNTVYLQMNSLKPEDTAVYYCAVQVQDESWLDYWGQGTQVTVSC”: the “polyreactivity (PSR sort gate)” value is on record as “low polyreactivity”.

On to “HDQHVESGGGLVQAGGSLRLSCAASGRIYGSTMGWYRQAPGKERELVAAITRNGGSTYYADSVKGRFTISRDNSKNTVYLQMNSVKPEDTEVYYCAARNAFGTYYYWGQGTQVNVSS”, for which the “polyreactivity (PSR sort gate)” value is listed as “high polyreactivity”.

With “HDQLVESGGGLVQAGGSLRLSCAASGFTFYRNAMGWYRQAPGQERELVAAITRGGSTTYADSVKGRFTISRANAKNTVYLQMISLKPDDTAVYYSAKVARADVPGYYKYYYWGQGTQVTVSS”, the “polyreactivity (PSR sort gate)” value was “high polyreactivity”.

With “HVKLVESGGGLVQAGGSLRLSCAASGSIFEPYVMGWYRQAPGKERELVAAIRQTRGSTYYADSVKGRFTISRDNAKNTVYLQMNSLKPEDTAVYYCNAEQNPSGLYDYRGVEGEMGYWGQGTQVTVSS”, the “polyreactivity (PSR sort gate)” value is “low polyreactivity”.

As for “HVQHVESGGGLVQAGGSLRLSCAASGFTFFYYTMGWYRQAPGKERELVAAISKGGGSTFYADSVKGRFTISRDNAKNTVYLQMNSLKPEDTAVYYCAASYVRGYDYWGQGTQVTVSS”, the “polyreactivity (PSR sort gate)” value is recorded as “high polyreactivity”.

As to “HVQHVESGGGLVQAGGSLRLSCADSGNTFSDNAMGLYRQAPGKVRELVAAISTSGGSTYYADSVKGRFTISRDNAKNTVYLQMNSLNPEDTADYYFAAQFTVLWYEYYYWVQGTQVTVSS”, the “polyreactivity (PSR sort gate)” value was “high polyreactivity”.

For “HVQHVESGGGLVQAGGSLRVSCAASGSIFYTNVMGWYRQAPGKERELVARIDSGGSTNYADSVKGRFTISRDNAKNTVYLQMYSLKPEDTAVYYCAADWYIYDYWGQGTQVTVSS”, the “polyreactivity (PSR sort gate)” value is on record as “low polyreactivity”.

With “HVQLEESGGGLVQAGGSLRLSCAASGITFYKYVMGSYRQAPGKERELVAAITYSGGSRYYADSVKGRFTISRDNAKNTVYLPMNSLKPEDSAVYYWNAYYYWYFPYTYDYWGQGTQVTVSS”, the “polyreactivity (PSR sort gate)” value is recorded as “high polyreactivity”.

With “HVQLLESGGGLVQAGGSLRLSCAASGFTFRSYAMGWYRQAPGKERELVAAISGSGGSTYYADSVKGRFTISRDNAKNTVYLQMNSLKPEVTAVYYCAARRSKNSALGGRVSIGDYWGQGTQVTVSS”, the “polyreactivity (PSR sort gate)” value is on record as “high polyreactivity”.

Consider “HVQLLESGGGLVQAGGSLRLSCAASGITFQFYPKGWYRQAPGKERELVAAISYSGGSTYYADSVKGRFTISRDNAKNTVYLQMNSLKAADTAVYYCAAVSYSSRGNYWGQGTQVTVSS”, for which the “polyreactivity (PSR sort gate)” value was “high polyreactivity”.

“HVQLQERGGGLVQAGGSLRLSCAASGSIFQATYMGWYRQAPGKEREFVASITYGSITNYADSVKGRFTIGRDNAKDTLYLQMNSLKPEDTAVYYCAVDRHYIPAFHYWGQCTQVTVSS”: the “polyreactivity (PSR sort gate)” value was “low polyreactivity”.

Take “HVQLQESGGGLVQACGSLRLSCAASGTIFKVVDMGLYRQSPAKEREFVATIGEGGNTYYADSVKGRFTISRDNAKNTVYLQMNSLKPEDTAVYFYEVVMGTSYRYTYWGQGTHVTVSS”: the “polyreactivity (PSR sort gate)” value is listed as “low polyreactivity”.

Regarding “HVQLQESGGGLVQAGGSLRLSCAASGNISYSRNMGWYRQAPGKERELVAAIDRGAITYYADSVKGRFTISRDNAKNTVYLQRYSLKPEDTAVYYCAAEYHDRWDHRYWGQGTQVTVSS”, the “polyreactivity (PSR sort gate)” value is “high polyreactivity”.

In the case of “HVQLQESGGGLVQAGGSLRLSCAASGSIFQATYMGWYRQAPGKEREFVASITYGSITNYADSVKGRFTIGRDNAKETLYLQMNSLKPEDTAVYYCAVDRHYIPAFHYWGQGTQVTVSS”, the “polyreactivity (PSR sort gate)” value is “low polyreactivity”.

For the sequence “HVQLVDSGGGIVQAGGSLRLSCAASGSTFYGNAMGWYRQAPGKEMEFVAAISRGGGSTYYADSVKGRFTISRDNAKNTVYVQMNLLKTEDTADFYCAATRYLHPWYYQYYYCGQGTQVTVSS”, the “polyreactivity (PSR sort gate)” value was “low polyreactivity”.

Turning to “HVQLVDSGGGLVQAGGSLRLSCAASGRTFSHNAMGWYRQAPGKDRELVATITYGAGRTSYADSVKGRFTISRDNAKNTLYLQMNSLKPEDTAVYYCNADYFTYRGGEYRRYEYWGQGTQVTVST”, the “polyreactivity (PSR sort gate)” value is “high polyreactivity”.

Turning to “HVQLVESAGGLVQAGGSLRLSCAASGSTIYGYAMGLYRQAPGKERELVAAITGSGGSTYYADSVKGRFTISRDNAKNTVYLQMNSLKPEDTAVYYCNAVRRYGLEYNYWGQGTQVTVSS”, the “polyreactivity (PSR sort gate)” value is recorded as “high polyreactivity”.

In the case of “HVQLVESGGGLVQAGGCLRLSCAASGRICIFYAMGWYRQAPGKERELVAAISSGPSTTYADSVKGRFTISRDNAKNTVYLQMNSLNPEDTAVYSCARRDGTTQALFGYDYWGQGTQVTVSS”, the “polyreactivity (PSR sort gate)” value is listed as “low polyreactivity”.

As to “HVQLVESGGGLVQAGGSLPLSCAASGLTFYYNAMGWYRQAPGNERELVAAISFSGGRTYYADSVKGRFTISRDNAKNTVYLQMNSLKPEDTAVYYCNTVGKQHLDYDYWGQGTQVTVSS”, the “polyreactivity (PSR sort gate)” value was “high polyreactivity”.

With “HVQLVESGGGLVQAGGSLRLICAASGRSFSPYAMGWYRLAPGKERELVAAITNGDSTNYADSVKGRFTISRDNAKNTVYLLMNSLKPEDTAVYYCNAAAEISSFDYDYWGQGTQVTVSS”, the “polyreactivity (PSR sort gate)” value is on record as “low polyreactivity”.

For the sequence “HVQLVESGGGLVQAGGSLRLSCAASGFIFVSYAMGWYRQAPGKERELVAAITWSTTSTYYADSVKGRFTISRDNAKNTVYLQMNSLKPEDTAVYYCAKYNFQYKHDYWGQGTQVTVSS”, the “polyreactivity (PSR sort gate)” value is “low polyreactivity”.

“HVQLVESGGGLVQAGGSLRLSCAASGFIFWRYAMGWYRQAPGKERELVAAISVSGTRTYYADSVKGRFTISRDNAKNTVYLQMNSLKPEDTAVYYCAADRYYGEDYWGQGTQVTVSS”: the “polyreactivity (PSR sort gate)” value was “high polyreactivity”.

Take “HVQLVESGGGLVQAGGSLRLSCAASGFIGIYAMGWYRQAPGKERELVAAITTSGGRTYYADSVKGRFTISRDNAKNTVYLQMNSLKPEDTAVYYCAAPWRLFSLYDYWGQGTQVTVSS”: the “polyreactivity (PSR sort gate)” value is recorded as “low polyreactivity”.

On to “HVQLVESGGGLVQAGGSLRLSCAASGFTFDAYAMGWYRQAPGKERELVAAISFSGGSTYYADSVKGRFTISRDNAKNTVYLQMNSLKPEDTAVYYCAAYSYTRTYGRHNYWGQGTQVTVSS”, for which the “polyreactivity (PSR sort gate)” value was “high polyreactivity”.

In the case of “HVQLVESGGGLVQAGGSLRLSCAASGITLTIYVMGGYRQAPGKERELVAAISTSGGSTYYADSVKGRFTISRDNAKNTDYLQMNSLKPEDTAVYYCNATPLRRYYGRYLMDYWGQGTQVTVSS”, the “polyreactivity (PSR sort gate)” value is recorded as “high polyreactivity”.

On to “HVQLVESGGGLVQAGGSLRLSCAASGLTFTRYTMGWSRQAPGKERELVAAITSSGGSTYYADSVKGRFTISRDNAKNTVYLQMNSLKPEDTAVYDCAARTGYGYGARRTLKSRYDYWGQGTQVTVSS”, for which the “polyreactivity (PSR sort gate)” value is listed as “high polyreactivity”.

Take “HVQLVESGGGLVQAGGSLRLSCAASGRIFDWNAMGWYRPAPGKEWELVAAISSRSGGTYYADSVKGRFTISRDNAKNTVYFQMNSLKPEDTAVYYCAADYYWYGRFEYGYWGQGTQVTVSS”: the “polyreactivity (PSR sort gate)” value is given as “low polyreactivity”.

Consider “HVQLVESGGGLVQAGGSLRLSCAASGRIFGYNAMGWYRQAPGKERELVAAISYSGGSTYYADSVKGRFTISRDNAKNTVYLQMYSLKPEDTAVYYGAARGHYASLFGGYFHYNYWGQGPQVTVSS”, for which the “polyreactivity (PSR sort gate)” value is listed as “high polyreactivity”.

Regarding “HVQLVESGGGLVQAGGSLRLSCAASGRIFYYNAMGWYRQAPGKERELVAVITWRGGTTYYADSVKGRFTTSRDTAKNTVYLQMNSLKPEDTAVYYCAADTGAFDGYYRQPRIRFDYWGQGTQVTVSS”, the “polyreactivity (PSR sort gate)” value is listed as “high polyreactivity”.

Consider “HVQLVESGGGLVQAGGSLRLSCAASGRTFGAYAMGWYRQAPGKERELVAAISKSGGRTYYADSVKGRFTISRDNAKNTVYLQMNSLKPEDSAVYYCNARGFRGEYDYWGQGTQVTVSS”, for which the “polyreactivity (PSR sort gate)” value is on record as “high polyreactivity”.

As to “HVQLVESGGGLVQAGGSLRLSCAASGRTFGIYAMGWYRHAPGKQRELVAAISKIGTRTYYADSVKGRFTISRDNAKNTVYLQMNSLNPEDTAVYYCAAYPVDAVYQAYRYPYYDEMDYWGQGTQVTVSS”, the “polyreactivity (PSR sort gate)” value is reported as “low polyreactivity”.

In the case of “HVQLVESGGGLVQAGGSLRLSCAASGRTFPYYAMGWYRQAPGKERELVAGITSNAGSTYYADSVKGRFTISRDNAKNTVYLLMNSLKPEDTAVYYCAKTKAGRWTTFKFGYWGQGTQVTVSS”, the “polyreactivity (PSR sort gate)” value was “high polyreactivity”.

For “HVQLVESGGGLVQAGGSLRLSCAASGRTFVNYTMGWYRQAPGKVRELVAAIRYRDGSTYYADSVKGRFTISRDNAKKTVYLQMNSLKPEDTAVYYCNNRITQVGDYIYDYWRQGTQVTVSS”, the “polyreactivity (PSR sort gate)” value is “low polyreactivity”.

Consider “HVQLVESGGGLVQAGGSLRLSCAASGSIFAKNAMGWYREAPGKERELVAGIDFSGGSTYYADSVKGRFTISRDNAKNTVYLQMNSLKPEDTAVYYCAADWAYKYELDYWGQGTQVTVSS”, for which the “polyreactivity (PSR sort gate)” value was “low polyreactivity”.

On to “HVQLVESGGGLVQAGGSLRLSCAASGSIFDDYAMGWYRQAPGKERELVAAISSSGTSTYYADSVKGRFTISRDNAKNTVYLQMNSLKPEDTAVYYCAARSAILKSGYLMDYWGQGTQVTVSS”, for which the “polyreactivity (PSR sort gate)” value was “low polyreactivity”.

As to “HVQLVESGGGLVQAGGSLRLSCAASGSIFFVYDMGWYRQAPGKERELVAAITWSGGRTTYADSVKGRFTISRDNAKNTVYLQMNSLKPVDTAVYYCAAGRVRLRILWGKRGWYDYWGQGTQVTVSS”, the “polyreactivity (PSR sort gate)” value is recorded as “low polyreactivity”.
